Assay [1] has as its target OTUB1 wild-type (human (by the printed UniProt accession), UniProt Q96FW1 1-271). Description: ITC.
For assay [2], the target named is OTUB1 (C91S) (human (by the printed UniProt accession), UniProt Q96FW1 1-271, C91S). Description: ITC.

This is an account of results in paper PMC7761795 (Biochemistry, 2020).

By Kd is commonly meant a measure of binding affinity in units of concentration.

Chain of OTUB1 (C91S) (Q96FW1 whole entry C91S): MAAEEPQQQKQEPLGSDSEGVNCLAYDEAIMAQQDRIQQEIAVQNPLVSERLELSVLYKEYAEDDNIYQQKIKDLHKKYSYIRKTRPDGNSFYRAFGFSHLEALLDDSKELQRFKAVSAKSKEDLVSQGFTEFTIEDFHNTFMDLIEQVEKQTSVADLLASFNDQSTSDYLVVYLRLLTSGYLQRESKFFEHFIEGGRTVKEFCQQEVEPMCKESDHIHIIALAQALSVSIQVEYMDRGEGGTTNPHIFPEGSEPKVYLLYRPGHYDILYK
Chain of OTUB1 wild-type (Q96FW1 whole entry): as the sequence (Q96FW1 whole entry C91S) above, with S91C counted along it

B1: UBE2D1 (enzyme)
chain: not shown
Consider B1, for which the binding result in assay [1] and in assay [2] was “binds” throughout.

B2: UBE2E1 (enzyme, human, UniProt P51965 1-193, looked up)
chain: MSDDDSRASTSSSSSSSSNQQTEKETNTPKKKESKVSMSKNSKLLSTSAKRIQKELADITLDPPPNCSAGPKGDNIYEWRSTILGPPGSVYEGGVFFLDITFTPEYPFKPPKVTFRTRIYHCNINSQGVICLDILKDNWSPALTISKVLLSICSLLTDCNPADPLVGSIATQYMTNRAEHDRMARQWTKRYAT
Take B2: the binding result in assay [2] is listed as “binds”.

B3: UBE2N (enzyme, human, UniProt P61088 1-152, looked up)
chain: MAGLPRRIIKETQRLLAEPVPGIKAEPDESNARYFHVVIAGPQDSPFEGGTFKLELFLPEEYPMAAPKVRFMTKIYHPNVDKLGRICLDILKDKWSPALQIRTVLLSIQALLSAPNPDDPLANDVAEQWKTNEAQAIETARAWTRLYAMNNI
The molecule B3 gave a Kd in assay [2] of 8.1 µM. This counts as single-digit micromolar.
